Assay results as given in publication PMC4176381.

Target: CSL (RBPJ) (Mus musculus) (UniProt P31266)
Experiment: ITC
Conditions: text: measurable, albeit weak, binding; ITC: 50 mM sodium phosphate pH 6.5, 150 mM NaCl, 10 C (10 uM CSL in cell, 100 uM DNA in syringe). EMSA: 150 mM KCl, 50 mM Tris pH 7.4, 1 mM DTT, 2% polyvinyl …

Sequence of CSL (RBPJ) (Mus musculus) (P31266 53-474): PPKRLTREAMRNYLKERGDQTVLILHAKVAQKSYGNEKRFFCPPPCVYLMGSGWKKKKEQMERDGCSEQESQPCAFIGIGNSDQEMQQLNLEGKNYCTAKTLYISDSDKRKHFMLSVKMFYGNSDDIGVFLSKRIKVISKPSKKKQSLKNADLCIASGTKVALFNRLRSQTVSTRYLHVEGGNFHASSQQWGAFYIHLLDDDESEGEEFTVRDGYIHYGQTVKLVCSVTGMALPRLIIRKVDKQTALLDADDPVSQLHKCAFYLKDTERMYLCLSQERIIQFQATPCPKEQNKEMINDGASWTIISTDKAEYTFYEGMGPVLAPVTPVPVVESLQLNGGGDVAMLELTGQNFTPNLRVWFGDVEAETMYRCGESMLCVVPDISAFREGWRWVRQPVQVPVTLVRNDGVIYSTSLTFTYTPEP

## ITC duplex CGTGAAAA
  Kd: > 50 µM
